Results taken from paper PMC3447759.

What was measured:
[1] = tested on: GAGE12I; test: EMSA; details: EMSA: 20 mM Tris pH 7.4, 50 mM NaCl, 1 mM DTT, 5 min or as indicated, 20 C, 1 pg/ul DNA. Calf thymus DNA-cellulose pull-downs (P1, P2; undefined DNA, not …)
[2] = target: GAGE12I (Lumier fusion, HEK293) (human); test: pull-down; Lumier (luminescence-based mammalian interactome mapping): protein A and Renilla luciferase fusions co-expressed in HEK293, lysed in 20 mM Tris-HCl pH 7.5, 250 mM NaCl, 1% Triton X-100, 10 mM EDTA, 10 mM DTT with Benzonase; protein A fusions isolated on IgG-coated magnetic beads …; luciferase bound/input normalised to a protein A dimer control and given as Z scores; both orientations
Sequence of GAGE12I (Lumier fusion, HEK293) (human) (A1L429 whole entry, the tested form may be a part): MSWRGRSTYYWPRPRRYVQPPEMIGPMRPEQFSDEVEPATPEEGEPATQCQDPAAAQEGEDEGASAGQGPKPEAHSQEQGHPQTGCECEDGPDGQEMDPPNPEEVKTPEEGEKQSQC

Z score [2] | Substance | K half [1] [µM]
– | pUC19 90-bp EcoRI-PvuII fragment | < 7.3
3.4 to 5.3 | full-length GCL (Lumier fusion, HEK293) (from UniProt Q96IK5 1-515) (natural protein) | –
